Substrate in this data set: NC(=O)c1ccc[n+]([C@@H]2O[C@H](COP(=O)(O)OP(=O)(O)OC[C@H]3O[C@@H](n4cnc5c(N)ncnc54)[C@H](O)[C@@H]3O)[C@@H](O)[C@H]2O)c1
Briefly: purified protein. Format: biochemical, Haloferax volcanii. The settings on record: 2.0 M KCl, G6P co-substrate, pH 7.5, 25 °C, varied: cofactor.

The values that follow come from publication PMC8506132, “Structural and Kinetic Insights Into the Molecular Basis of Salt Tolerance of the Short-Chain Glucose-6-Phosphate Dehydrogenase From Haloferax volcanii” (Frontiers in Microbiology, 2021).

What is called Km is the substrate concentration at which the rate is half of its maximum. One may read the kcat as the maximal rate divided by the concentration of active sites.

B1: HvG6PDH (Haloferax volcanii DS2) (protein)
chain: MDQPVLLTGAGGRVGQAILGHIGDAYDWRLLDREPLSDEKIPDSVDSTEVYVADVTDETAVRNAMDGVHAVIHLAGDPRPEAPWDSVLRNNIDGTQQMFDAAVDVGVEKFAFASSNHAVGAYETTDRTPDMYRPHHEFRLDGTELPRPSNLYGVSKAAGETLGRYYHDHHDISVVNVRIGNLTQHHPPKEYERGQAMWLSYRDCGHLFECCIEADYDYEIVYGISDNDRKYYSIDRARAVLGYDPQDNSAEFTFEGEPLDEA
notes: modelled as dimer
Take B1: the Km is 280 ± 68 µM and the turnover number (kcat) amounted to 48.5 ± 4.3 s⁻¹.
